Laboratory results taken from patent publication US20120093830A1 (published 2012).
Where a chain is given by its changes, count along the chain named. Values joined by “and” are separate entries in the source; they are usually repeats but may differ in a detail not shown here. Equal values may be shown once.

Legend:
human IL-13 [1] = molecular target: T1, human IL-13 (human, UniProt P35225 35-146); test: IL-13 sandwich ELISA: dAb dilution series mixed with IL-13, binding of IL-13 to the coating (capture) antibody detected; block 1 of the table, sample not nebulised
T1 construct: also called hIL-13; interleukin-13
T1 sequence (P35225 35-146 limits assumed): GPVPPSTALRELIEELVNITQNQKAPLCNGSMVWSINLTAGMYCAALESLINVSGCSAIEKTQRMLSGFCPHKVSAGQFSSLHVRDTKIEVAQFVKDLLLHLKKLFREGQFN
Protocol: (§1) The plate was then incubated with TMB substrate (KPL, Gaithersburg, USA), and the reaction was stopped by the addition of HCl and the absorbance read at 450 nm.
(§2) Nebulisation was performed for approximately 3 minutes. 100 uL of protein samples (diluted to 1 mg/mL) were injected onto the SEC (TSKgel G2000SWXL, Tosoh Biosciences, Germany) column. The protein separation on SEC was performed at 0.5 mL/min for 45 minutes. PBS (phosphate buffered saline)+10% EtOH was used as mobile phase. The detection of eluting proteinaceous material was carried by on-line detection by UV (Abs 280 nm & 215 nm). […] The optimum MMAD is 3 μm and for deep lung delivery the desirable respirable fraction is the highest percentage of particles <5 μm. The LC+ (Pari) Jet nebuliser gives the better MMAD: MMAD values are lower when the buffer contains PEG; MMAD decreases as protein concentration increases.

cynomolgus IL-13 = cynomolgus IL-13 (cynomolgus, UniProt Q0PW92 21-132); test: cell-based or functional assay
Chain of cynomolgus IL-13 (Q0PW92 entry or part of it): as the sequence (P35225 35-146 limits assumed) above, with G1S, R10K, M42V, S67N, H83R, L100V counted along it

human IL-13 [2] = molecular target: T1, human IL-13; test: cell-based or functional assay
human IL-13 [3] = molecular target: T1, human IL-13; test: IL-13 sandwich ELISA (IL-13 binding to the capture antibody inhibited); block 1; sample #14 (2.3 mg/ml, 25 mM sodium phosphate pH 7.5, 7% PEG1000, 1.2% sucrose), material remaining in the cup after LC+ jet nebuliser
Protocol: as §1, §2

human IL-13 [4] = molecular target: T1, human IL-13; test: IL-13 sandwich ELISA (IL-13 binding to the capture antibody inhibited); block 4; sample #16 (2.6 mg/mL in PBS), aerosolised material after LC+ jet nebuliser
Protocol: as §1, §2

human IL-13 [5] = molecular target: T1, human IL-13; test: IL-13 sandwich ELISA (IL-13 binding to the capture antibody inhibited); block 4; sample #16 (2.6 mg/mL in PBS), material remaining in the cup after LC+ jet nebuliser
Protocol: as §1, §2

human IL-13 [6] = molecular target: T1, human IL-13; test: IL-13 sandwich ELISA: dAb dilution series mixed with IL-13, binding of IL-13 to the coating (capture) antibody detected; block 3 of the table, sample not nebulised
Protocol: as §1, §2

human IL-13 [7] = molecular target: T1, human IL-13; test: IL-13 sandwich ELISA: dAb dilution series mixed with IL-13, binding of IL-13 to the coating (capture) antibody detected; block 4 of the table, sample not nebulised
Protocol: as §1, §2

human IL-13 [8] = molecular target: T1, human IL-13; test: IL-13 sandwich ELISA (IL-13 binding to the capture antibody inhibited); block 2; sample #14 (2.3 mg/ml, 25 mM sodium phosphate pH 7.5, 7% PEG1000, 1.2% sucrose), aerosolised material after LC+ jet nebuliser
Protocol: as §1, §2

human IL-13 [9] = molecular target: T1, human IL-13; test: IL-13 sandwich ELISA (IL-13 binding to the capture antibody inhibited); block 3; sample #15 (4.7 mg/mL, 25 mM sodium phosphate pH 7.5, 7% PEG1000, 1.2% sucrose), material remaining in the cup after LC+ jet nebuliser
Protocol: as §1, §2

human IL-13 [10] = molecular target: T1, human IL-13; test: IL-13 sandwich ELISA (IL-13 binding to the capture antibody inhibited); block 1; sample #14 (2.3 mg/ml, 25 mM sodium phosphate pH 7.5, 7% PEG1000, 1.2% sucrose), aerosolised material after E-flow vibrating mesh nebuliser
Protocol: as §1, §2

human IL-13 [11] = molecular target: T1, human IL-13; test: IL-13 sandwich ELISA (IL-13 binding to the capture antibody inhibited); block 3; sample #15 (4.7 mg/mL, 25 mM sodium phosphate pH 7.5, 7% PEG1000, 1.2% sucrose), aerosolised material after LC+ jet nebuliser
Protocol: as §1, §2

human IL-13 [12] = molecular target: T1, human IL-13; test: IL-13 sandwich ELISA (IL-13 binding to the capture antibody inhibited); block 3; sample #16 (2.6 mg/mL in PBS), material remaining in the cup after E-flow vibrating mesh nebuliser
Protocol: as §1, §2

human IL-13 [13] = molecular target: T1, human IL-13; test: IL-13 sandwich ELISA (IL-13 binding to the capture antibody inhibited); block 2; sample #15 (4.7 mg/mL, 25 mM sodium phosphate pH 7.5, 7% PEG1000, 1.2% sucrose), aerosolised material after E-flow vibrating mesh nebuliser
Protocol: as §1, §2

human IL-13 [14] = molecular target: T1, human IL-13; test: IL-13 sandwich ELISA (IL-13 binding to the capture antibody inhibited); block 2; sample #15 (4.7 mg/mL, 25 mM sodium phosphate pH 7.5, 7% PEG1000, 1.2% sucrose), material remaining in the cup after E-flow vibrating mesh nebuliser
Protocol: as §1, §2

human IL-13 [15] = molecular target: T1, human IL-13; test: IL-13 sandwich ELISA: dAb dilution series mixed with IL-13, binding of IL-13 to the coating (capture) antibody detected; block 2 of the table, sample not nebulised
Protocol: as §1, §2

human IL-13 [16] = molecular target: T1, human IL-13; test: IL-13 sandwich ELISA (IL-13 binding to the capture antibody inhibited); block 4; sample #16 (2.6 mg/mL in PBS), aerosolised material after E-flow vibrating mesh nebuliser
Protocol: as §1, §2

human IL-13 [17] = molecular target: T1, human IL-13; test: IL-13 sandwich ELISA: dAb dilution series mixed with IL-13, binding of IL-13 to the coating (capture) antibody detected; block 1 of the table, standard
human IL-13 [18] = molecular target: T1, human IL-13; test: IL-13 sandwich ELISA: dAb dilution series mixed with IL-13, binding of IL-13 to the coating (capture) antibody detected; block 3 of the table, standard
human IL-13 [19] = molecular target: T1, human IL-13; test: IL-13 sandwich ELISA: dAb dilution series mixed with IL-13, binding of IL-13 to the coating (capture) antibody detected; block 4 of the table, standard
human IL-13 [20] = molecular target: T1, human IL-13; test: IL-13 sandwich ELISA: dAb dilution series mixed with IL-13, binding of IL-13 to the coating (capture) antibody detected; block 2 of the table, standard

B1: DOM10-53-474 (single domain antibody (dAb), V domains shown)
VH: GVQLLESGGGLVQPGGSLRLSCAASGFTFAWYDMGWVRQAPGKGLEWVSSIDWHGEVTYYADSVKGRFTISRDNSKNTLYLQMNSLRAEDTAVYYCATAEDEPGYDYWGQGTLVTVSS
notes: Soluble anti-IL-13 domain antibody monomer (immunoglobulin single variable domain); also called anti-IL-13 dAb
IC50 (human IL-13 [1]): 45.8 pM | EC50, FIG. 1B: inhibition of cynomolgus IL-13 (3 ng/ml) stimulated alkaline phosphatase production in HEK STAT6 cells (cynomolgus IL-13): 10800 pM | EC50, FIG. 1A: inhibition of human IL-13 (3 ng/ml) stimulated alkaline phosphatase production in HEK STAT6 cells (human IL-13 [2]): 720 pM | IC50 (human IL-13 [3]): 31.7 pM | IC50 (human IL-13 [4]): 23 pM | IC50 (human IL-13 [5]): 33.9 pM | IC50 (human IL-13 [6]): 28.9 pM | IC50 (human IL-13 [7]): 26.9 pM | IC50 (human IL-13 [8]): 34.8 pM | IC50 (human IL-13 [9]): 12.8 pM | IC50 (human IL-13 [10]): 32.2 pM | IC50 (human IL-13 [11]): 14.9 pM | IC50 (human IL-13 [12]): 22.4 pM | IC50 (human IL-13 [13]): 18.5 pM | IC50 (human IL-13 [14]): 21.4 pM | IC50 (human IL-13 [15]): 35.6 pM | IC50 (human IL-13 [16]): 35.1 pM

B2: DOM10-53-344 (Std) (single domain antibody (dAb), V domains shown)
VH: B1 VH with T28I
IC50 (human IL-13 [17]): 71.6 pM | IC50 (human IL-13 [18]): 45.5 pM | IC50 (human IL-13 [19]): 67.1 pM | IC50 (human IL-13 [20]): 125 pM

B3: DOM10-275-78 (single domain antibody (dAb), V domains shown)
VH: EVQLLESGGGLVQPGGSLRLSCVASGFTFDVAEMDWVRQAPGKGLEWVSTISPSRRGTYYADSVKGRFTISRDNSKNTLYLQMNSLRAEDTAVYYCAKAYTGRSLWGPGTLVTVSS
EC50, FIG. 1B: inhibition of cynomolgus IL-13 (3 ng/ml) stimulated alkaline phosphatase production in HEK STAT6 cells (cynomolgus IL-13): 1370 pM | EC50, FIG. 1A: inhibition of human IL-13 (3 ng/ml) stimulated alkaline phosphatase production in HEK STAT6 cells (human IL-13 [2]): 2420 pM and 2640 pM
